{
  "source": "paper PMC5998082",
  "about": "“Development of a Nanobody-based lateral flow assay to detect active Trypanosoma congolense infections” (Scientific Reports, 2018)",
  "target": "the molecule itself",
  "assay": "SEC; analytical SEC of TcoPYK alone, ENRICH 650 10/30 column, BioRAD gel filtration standard",
  "data": [
    {"protein": "recombinant T. congolense pyruvate kinase (enzyme, UniProt G0UYF4 1-499, looked up, also called TcoPYK; source: E. coli BL21(DE3), purified (details in the Supplementary Information)) MSQLQHNIGLSIFEPVAKHRANRIICTIGPSTQSVEALKGLMKSGMSVARMNFSHGSYEYHQTTINNVRAAAAELGLHIGIALDTKGPEIRTGLFKDGEATYAPGDTVLVTTDPAFEKIGTKEKFYVDYPQLPNVVRPGGLIYVDDGVLTLRVLSKEDDCTLKCHVNNHHRLTDRKGINLPGCEVDLPAVSEKDRKDLQFGVEQGVDMIFASFIRTADQVREVRAALGEKGKDTLIISKIENHQGVQNIDAIIEASDGIMVARGDLGVEIPAEKVVVAQMCIISKCNVAGKPVICATQMLESMTTNPRPTRAEVTDVANAVFNGADCVMLSGETAKGKYPNEVVQYMVRICIEAQSATHDSVMFNSIKNLQKIPMSPEEAVCSSAVSSAFEVQAKAILVLSNTGRSARLISKYRPNCPIICATTRLLTCRQLNVTRSVESVYYDVDAHGEDNDREKRVQLGVDWAKTKGYVSAGDVMVIVHADHSVKGYPNQTRLVRVR", "values": [
      {"measurement": "stoichiometry N", "result": 4}
    ]}
  ]
}
